The source of these data is patent US12698494.

The target of data set [1] is T1, FRETS-VWF73 fluorogenic substrate, P04275.
T1 chain: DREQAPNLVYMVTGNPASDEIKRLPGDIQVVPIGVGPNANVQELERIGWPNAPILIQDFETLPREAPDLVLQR

Data set [2] concerns the target Von Willebrand Factor (VWF) multimers, P04275.

B1: Full-length ADAMTS13 variant NGLY6 (636RLPRL640 to 636RNASL640) (protein)
chain: AAGGILHLELLVAVGPDVFQAHQEDTERYVLTNLNIGAELLRDPSLGAQFRVHLVKMVILTEPEGAPNITANLTSSLLSVCGWSQTINPEDDTDPGHADLVLYITRFDLELPDGNRQVRGVTQLGGACSPTWSCLITEDTGFDLGVTIAHEIGHSFGLEHDGAPGSGCGPSGHVMASDGAAPRAGLAWSPCSRRQLLSLLSAGRARCVWDPPRPQPGSAGHPPDAQPGLYYSANEQCRVAFGPKAVACTFAREHLDMCQALSCHTDPLDQSSCSRLLVPLLDGTECGVEKWCSKGRCRSLVELTPIAAVHGRWSSWGPRSPCSRSCGGGVVTRRRQCNNPRPAFGGRACVGADLQAEMCNTQACEKTQLEFMSQQCARTDGQPLRSSPGGASFYHWGAAVPHSQGDALCRHMCRAIGESFIMKRGDSFLDGTRCMPSGPREDGTLSLCVSGSCRTFGCDGRMDSQQVWDRCQVCGGDNSTCSPRKGSFTAGRAREYVTFLTVTPNLTSVYIANHRPLFTHLAVRIGGRYVVAGKMSISPNTTYPSLLEDGRVEYRVALTEDRNASLEEIRIWGPLQEDADIQVYRRYGEEYGNLTRPDITFTYFQPKPRQAWVWAAVRGPCSVSCGAGLRWVNYSCLDQARKELVETVQCQGSQQPPAWPEACVLEPCPPYWAVGDFGPCSASCGGGLRERPVRCVEAQGSLLKTLPPARCRAGAQQPAVALETCNPQPCPARWEVSEPSSCTSAGGAGLALENETCVPGADGLEAPVTEGPGSVDEKLPAPEPCVGMSCPPGWGHLDATSAGEKAPSPWGSIRTGAQAAHVWTPAAGSCSVSCGRGLMELRFLCMDSALRVPVQEELCGLASKPGSRREVCQAVPCPARWQYKLAACSVSCGRGVVRRILYCARAHGEDDGEEILLDTQCQGLPRPEPQEACSLEPCPPRWKVMSLGPCSASCGLGTARRSVACVQLDQGQDVEVDEAACAALVRPEASVPCLIADCTYRWHVGTWMECSVSCGDGIQRRRDTCLGPQAQAPVPADFCQHLPKPVTVRGCWAGPCVGQGTPSLVPHEEAAAPGRTTATPAGASLEWSQARGLLFSPAPQPRRLLPGPQENSVQSSACGRQHLEPTGTIDMRGPGQADCAVAIGRPLGEVVTLRVLESSLNCSAGDMLLLWGRLTWRKMCRKLLDMTFSSKTNTLVVRQRCGRPGGGVLLRYGSQLAPETFYRECDMQLFGPWGEIVSPSLSPATSNAGGCRLFINVAPHARIAIHALATNMGAGTEGANASYILIRDTHSLRTTAFHGQQVLYWESESSQAEMEFSEGFLKAQASLRGQYWTLQSWVPEMQDPQSWKGKEGTHHHHHH
As to B1, the “FRETS-VWF73 activity relative to wild-type ADAMTS13” value in data set [1] was “NGLY6 showed a reduced activity when compared to wild-type ADAMTS13”.

B2: Full-length ADAMTS13 variant NGLY5 (635DRLPR639 to 635DNLSR639) (protein)
chain: AAGGILHLELLVAVGPDVFQAHQEDTERYVLTNLNIGAELLRDPSLGAQFRVHLVKMVILTEPEGAPNITANLTSSLLSVCGWSQTINPEDDTDPGHADLVLYITRFDLELPDGNRQVRGVTQLGGACSPTWSCLITEDTGFDLGVTIAHEIGHSFGLEHDGAPGSGCGPSGHVMASDGAAPRAGLAWSPCSRRQLLSLLSAGRARCVWDPPRPQPGSAGHPPDAQPGLYYSANEQCRVAFGPKAVACTFAREHLDMCQALSCHTDPLDQSSCSRLLVPLLDGTECGVEKWCSKGRCRSLVELTPIAAVHGRWSSWGPRSPCSRSCGGGVVTRRRQCNNPRPAFGGRACVGADLQAEMCNTQACEKTQLEFMSQQCARTDGQPLRSSPGGASFYHWGAAVPHSQGDALCRHMCRAIGESFIMKRGDSFLDGTRCMPSGPREDGTLSLCVSGSCRTFGCDGRMDSQQVWDRCQVCGGDNSTCSPRKGSFTAGRAREYVTFLTVTPNLTSVYIANHRPLFTHLAVRIGGRYVVAGKMSISPNTTYPSLLEDGRVEYRVALTEDNLSRLEEIRIWGPLQEDADIQVYRRYGEEYGNLTRPDITFTYFQPKPRQAWVWAAVRGPCSVSCGAGLRWVNYSCLDQARKELVETVQCQGSQQPPAWPEACVLEPCPPYWAVGDFGPCSASCGGGLRERPVRCVEAQGSLLKTLPPARCRAGAQQPAVALETCNPQPCPARWEVSEPSSCTSAGGAGLALENETCVPGADGLEAPVTEGPGSVDEKLPAPEPCVGMSCPPGWGHLDATSAGEKAPSPWGSIRTGAQAAHVWTPAAGSCSVSCGRGLMELRFLCMDSALRVPVQEELCGLASKPGSRREVCQAVPCPARWQYKLAACSVSCGRGVVRRILYCARAHGEDDGEEILLDTQCQGLPRPEPQEACSLEPCPPRWKVMSLGPCSASCGLGTARRSVACVQLDQGQDVEVDEAACAALVRPEASVPCLIADCTYRWHVGTWMECSVSCGDGIQRRRDTCLGPQAQAPVPADFCQHLPKPVTVRGCWAGPCVGQGTPSLVPHEEAAAPGRTTATPAGASLEWSQARGLLFSPAPQPRRLLPGPQENSVQSSACGRQHLEPTGTIDMRGPGQADCAVAIGRPLGEVVTLRVLESSLNCSAGDMLLLWGRLTWRKMCRKLLDMTFSSKTNTLVVRQRCGRPGGGVLLRYGSQLAPETFYRECDMQLFGPWGEIVSPSLSPATSNAGGCRLFINVAPHARIAIHALATNMGAGTEGANASYILIRDTHSLRTTAFHGQQVLYWESESSQAEMEFSEGFLKAQASLRGQYWTLQSWVPEMQDPQSWKGKEGTHHHHHH
As for B2, the “VWF multimer assay (urea-denatured recombinant VWF)” value in data set [2] is “a reduced VWF processing activity was observed for NGLY2 and NGLY5”. For the same protein, the “FRETS-VWF73 activity relative to wild-type ADAMTS13” value in data set [1] is listed as “The activity of NGLY5 was slightly reduced when compared to wild type ADAMTS13”.

B3: Full-length ADAMTS13 variant NGLY1 (567AREYV571 to 567ANETV571) (protein)
chain: AAGGILHLELLVAVGPDVFQAHQEDTERYVLTNLNIGAELLRDPSLGAQFRVHLVKMVILTEPEGAPNITANLTSSLLSVCGWSQTINPEDDTDPGHADLVLYITRFDLELPDGNRQVRGVTQLGGACSPTWSCLITEDTGFDLGVTIAHEIGHSFGLEHDGAPGSGCGPSGHVMASDGAAPRAGLAWSPCSRRQLLSLLSAGRARCVWDPPRPQPGSAGHPPDAQPGLYYSANEQCRVAFGPKAVACTFAREHLDMCQALSCHTDPLDQSSCSRLLVPLLDGTECGVEKWCSKGRCRSLVELTPIAAVHGRWSSWGPRSPCSRSCGGGVVTRRRQCNNPRPAFGGRACVGADLQAEMCNTQACEKTQLEFMSQQCARTDGQPLRSSPGGASFYHWGAAVPHSQGDALCRHMCRAIGESFIMKRGDSFLDGTRCMPSGPREDGTLSLCVSGSCRTFGCDGRMDSQQVWDRCQVCGGDNSTCSPRKGSFTAGRANETVTFLTVTPNLTSVYIANHRPLFTHLAVRIGGRYVVAGKMSISPNTTYPSLLEDGRVEYRVALTEDRLPRLEEIRIWGPLQEDADIQVYRRYGEEYGNLTRPDITFTYFQPKPRQAWVWAAVRGPCSVSCGAGLRWVNYSCLDQARKELVETVQCQGSQQPPAWPEACVLEPCPPYWAVGDFGPCSASCGGGLRERPVRCVEAQGSLLKTLPPARCRAGAQQPAVALETCNPQPCPARWEVSEPSSCTSAGGAGLALENETCVPGADGLEAPVTEGPGSVDEKLPAPEPCVGMSCPPGWGHLDATSAGEKAPSPWGSIRTGAQAAHVWTPAAGSCSVSCGRGLMELRFLCMDSALRVPVQEELCGLASKPGSRREVCQAVPCPARWQYKLAACSVSCGRGVVRRILYCARAHGEDDGEEILLDTQCQGLPRPEPQEACSLEPCPPRWKVMSLGPCSASCGLGTARRSVACVQLDQGQDVEVDEAACAALVRPEASVPCLIADCTYRWHVGTWMECSVSCGDGIQRRRDTCLGPQAQAPVPADFCQHLPKPVTVRGCWAGPCVGQGTPSLVPHEEAAAPGRTTATPAGASLEWSQARGLLFSPAPQPRRLLPGPQENSVQSSACGRQHLEPTGTIDMRGPGQADCAVAIGRPLGEVVTLRVLESSLNCSAGDMLLLWGRLTWRKMCRKLLDMTFSSKTNTLVVRQRCGRPGGGVLLRYGSQLAPETFYRECDMQLFGPWGEIVSPSLSPATSNAGGCRLFINVAPHARIAIHALATNMGAGTEGANASYILIRDTHSLRTTAFHGQQVLYWESESSQAEMEFSEGFLKAQASLRGQYWTLQSWVPEMQDPQSWKGKEGTHHHHHH
As for B3, the “FRETS-VWF73 activity relative to wild-type ADAMTS13” value in data set [1] is “The ability of NGLY1, 2, 3 and 4 was similar or higher when compared to wild-type ADAMTS13”.

B4: ADAMTS13 variant NGLY3 + R568A/Y665A + L591A/R636A/L637A/L668A (protein)
chain: AAGGILHLELLVAVGPDVFQAHQEDTERYVLTNLNIGAELLRDPSLGAQFRVHLVKMVILTEPEGAPNITANLTSSLLSVCGWSQTINPEDDTDPGHADLVLYITRFDLELPDGNRQVRGVTQLGGACSPTWSCLITEDTGFDLGVTIAHEIGHSFGLEHDGAPGSGCGPSGHVMASDGAAPRAGLAWSPCSRRQLLSLLSAGRARCVWDPPRPQPGSAGHPPDAQPGLYYSANEQCRVAFGPKAVACTFAREHLDMCQALSCHTDPLDQSSCSRLLVPLLDGTECGVEKWCSKGRCRSLVELTPIAAVHGRWSSWGPRSPCSRSCGGGVVTRRRQCNNPRPAFGGRACVGADLQAEMCNTQACEKTQLEFMSQQCARTDGQPLRSSPGGASFYHWGAAVPHSQGDALCRHMCRAIGESFIMKRGDSFLDGTRCMPSGPREDGTLSLCVSGSCRTFGCDGRMDSQQVWDRCQVCGGDNSTCSPRKGSFTAGRAAEYVTFLTVTPNLTSVYIANHRPAFTHLAVRIGGRYVVAGNMSISPNTTYPSLLEDGRVEYRVALTEDAAPRLEEIRIWGPLQEDADIQVYRRYGEEAGNATRPDITFTYFQPKPRQAWVWAAVRGPCSVSCGAGLRWVNYSCLDQARKELVETVQCQGSQQPPAWPEACVLEPCPPYWAVGDFGPCSASCGGGLRERPVRCVEAQGSLLKTLPPARCRAGAQQPAVALETCNPQPCPARWEVSEPSSCTSAGGAGLALENETCVPGADGLEAPVTEGPGSVDEKLPAPEPCVGMSCPPGWGHLDATSAGEKAPSPWGSIRTGAQAAHVWTPAAGSCSVSCGRGLMELRFLCMDSALRVPVQEELCGLASKPGSRREVCQAVPCPARWQYKLAACSVSCGRGVVRRILYCARAHGEDDGEEILLDTQCQGLPRPEPQEACSLEPCPPRWKVMSLGPCSASCGLGTARRSVACVQLDQGQDVEVDEAACAALVRPEASVPCLIADCTYRWHVGTWMECSVSCGDGIQRRRDTCLGPQAQAPVPADFCQHLPKPVTVRGCWAGPCVGQGTPSLVPHEEAAAPGRTTATPAGASLEWSQARGLLFSPAPQPRRLLPGPQENSVQSSACGRQHLEPTGTIDMRGPGQADCAVAIGRPLGEVVTLRVLESSLNCSAGDMLLLWGRLTWRKMCRKLLDMTFSSKTNTLVVRQRCGRPGGGVLLRYGSQLAPETFYRECDMQLFGPWGEIVSPSLSPATSNAGGCRLFINVAPHARIAIHALATNMGAGTEGANASYILIRDTHSLRTTAFHGQQVLYWESESSQAEMEFSEGFLKAQASLRGQYWTLQSWVPEMQDPQSWKGKEGT
For the protein B4, the Activity level (% relative to wild type ADAMTS13) VWFFRETS73 (% relative to wild type ADAMTS13) in data set [1] came out at 40.
